Data published in article PMC7261172, “Peptides containing the PCNA interacting motif APIM bind to the β-clamp and inhibit bacterial growth and mutagenesis” (Nucleic Acids Research, 2020).

B1: Cell penetrating APIM-peptide RFSLK (Ac-MD-RFSLK-WKKKRKI-RRRRRRRRRRR) (peptide)
peptide: Ac-MDRFSLKWKKKRKIRRRRRRRRRRR-NH2
modifications: also: TFA salt
notes: APIM motif RFSLK, linker WKKKRKI, cell penetrating R11; TFA salt, >90% pure; also called RFSLK-peptide; source: synthetic peptide; bought: Innovagen, Sweden
B2: Octamer APIM peptide RWLVK (Ac-MDRWLVKW) (peptide)
peptide: Ac-MDRWLVKW-NH2
modifications: also: TFA salt
notes: APIM motif RWLVK without the cell penetrating part; also called octamer peptide containing RWLVK; source: synthetic peptide; bought: Innovagen, Sweden
B3: Cell penetrating APIM-peptide RWLVK (Ac-MD-RWLVK-WKKKRKI-RRRRRRRRRRR) (peptide)
peptide: Ac-MDRWLVKWKKKRKIRRRRRRRRRRR-NH2
modifications: also: TFA salt
notes: APIM motif RWLVK, linker WKKKRKI, cell penetrating R11; TFA salt, >90% pure; also called RWLVK-peptide; cell penetrating RWLVK-peptide; source: synthetic peptide; bought: Innovagen, Sweden
B4: Cell penetrating peptide with mutated APIM RALVK (Ac-MD-RALVK-WKKKRKI-RRRRRRRRRRR) (peptide)
peptide: Ac-MDRALVKWKKKRKIRRRRRRRRRRR-NH2
modifications: also: TFA salt
notes: mutated APIM RALVK, linker WKKKRKI, cell penetrating R11; TFA salt, >90% pure; also called RALVK-peptide; source: synthetic peptide; bought: Innovagen, Sweden
B5: Pol III β-clamp binding peptide (Ac-EQVELEFD) (peptide)
peptide: Ac-EQVELEFD-NH2
modifications: also: TFA salt
notes: also called Pol III peptide; source: synthetic peptide; bought: Innovagen, Sweden

Key:
Details in all cases: both partners purified
[1] = target: T1, E. coli β-clamp labelled with RED-maleimide dye (MST) (E. coli, UniProt P0A988 1-366, RED-maleimide fluorescent dye (RED-Maleimide Labelling Kit, NanoTemper); site not stated); test: MST; β-clamp labelled with RED-maleimide (3 nM stock, diluted 1:1 with ligand); peptides in 16 1:1 dilutions from 500 μM to 15 nM; 50 mM Tris-HCl pH 7.5, 150 mM NaCl, 10 mM MgCl2, 2% fetal bovine serum; Monolith NT.115; change of fluorescence analysed
T1 construct: β-clamp (β subunit of DNA polymerase III), product of the dnaN gene, E. coli; it may or may not be the same His-tagged pET-16b construct as m1; also called fluorescent labeled β-clamp; Purified E.coli β-clamp; source: labelled with the RED-Maleimide Labelling Kit

[2] = target: T2, E. coli β-clamp, wild type, His-tagged (E. coli, UniProt P0A988 1-366); test: NMR titration; 1D 1H NMR of the peptide with sub-stoichiometric β-clamp (100 or 50 μM peptide added 5 or 20 μM β-clamp); line broadening or loss of signal read; 298 K, 20 mM NaH2PO4, 100 mM NaCl, pH 7.4
T2 construct: β-clamp (β subunit of DNA polymerase III), product of the dnaN gene, E. coli; no cleavage is described; also called WT β-clamp; DNA sliding clamp; source: for NMR HisTrap FF and Superdex 200 SEC

[3] = target: T3, E. coli β-clamp H148K, His-tagged (E. coli, UniProt P0A988 1-366, H148K); test: SPR; WT or mutant β-clamp immobilised by amine coupling on CM5 (about 2000 RU); octamer peptides at 4-128 μM, single-cycle; 25°C, 30 μl/min; PBS P+ (20 mM phosphate pH 7.4, 3 mM KCl, 137 mM NaCl, 0.05% P20); sensorgrams normalised to the immobilised level
T3 construct: β-clamp, product of the dnaN gene, E. coli, with H148K; Made by site-directed mutagenesis of the plasmid of m1

[4] = target: T4, E. coli β-clamp V151A, His-tagged (E. coli, UniProt P0A988 1-366, V151A); test: as above
T4 construct: β-clamp, product of the dnaN gene, E. coli, with V151A; Made by site-directed mutagenesis of the plasmid of m1

[5] = target: T5, E. coli β-clamp P242D, His-tagged (E. coli, UniProt P0A988 1-366, P242D); test: as above
T5 construct: β-clamp, product of the dnaN gene, E. coli, with P242D; Made by site-directed mutagenesis of the plasmid of m1

[6] = target: T6, E. coli β-clamp M362D, His-tagged (E. coli, UniProt P0A988 1-366, M362D); test: as above
T6 construct: β-clamp, product of the dnaN gene, E. coli, with M362D; Made by site-directed mutagenesis of the plasmid of m1

[7] = target: T7, E. coli β-clamp P363D, His-tagged (E. coli, UniProt P0A988 1-366, P363D); test: as above
T7 construct: β-clamp, product of the dnaN gene, E. coli, with P363D; Made by site-directed mutagenesis of the plasmid of m1

Row | Binder | Kd [1] | binding result [2] | also measured
1 | B1 | < 50 µM | – | –
2 | B2 | – | binds | binding result [3]: binds; binding result [4]: binds; binding result [5]: binds; binding result [6]: binds; binding result [7]: binds
3 | B3 | < 50 µM | – | –
4 | B4 | > 750 µM | – | –
5 | B5 | – | binds | –
